Measurements reported in PMC5770380.

Biological target: chromatin fibers containing chemically produced H3K9me3 (histone octamers on 12 x 601 array DNA, DA1 or DA2 labelled) (human)

Heterochromatin protein 1α (HP1α, CBX5) (from UniProt P45973 1-191) (natural protein)
time constant of the increase of compaction (FRET, DA2) after injection of 1 μM HP1α into flow cells with H3K9me3-modified chromatin fibers: 1.1 s
